B1: PBXIP1 (parent)
chain: LQQLRARLQGLEADCVRGPDGVCL
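Also: lentivirally expressed fusions sorted by FACS into six bins by GFP to DsRed ratio, PSI derived from sequencing read proportions per bin multiplied by bin number.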

Variants of: B1
Assay: protein stability index of a GFP-peptide fusion (GPS, HEK-293T) (PSI 1-6); higher = more stable
Settings: c terminus: a fixed tail appended
For LQLLRARLQGLEADCVRGPDGVCL [Q3L], the protein stability index was 1.93.
In the case of LQELRARLQGLEADCVRGPDGVCL [Q3E], the protein stability index is reported as 2.58.
LQGLRARLQGLEADCVRGPDGVCL [Q3G] showed a protein stability index of 2.66.
For LQILRARLQGLEADCVRGPDGVCL [Q3I], the protein stability index was 1.68.
For LQKLRARLQGLEADCVRGPDGVCL [Q3K], the protein stability index was 1.97.
In the case of LQPLRARLQGLEADCVRGPDGVCL [Q3P], the protein stability index is reported as 3.53.
In the case of LQNLRARLQGLEADCVRGPDGVCL [Q3N], the protein stability index is reported as 2.36.
LQRLRARLQGLEADCVRGPDGVCL [Q3R] gave a protein stability index of 3.08.
LQALRARLQGLEADCVRGPDGVCL [Q3A] showed a protein stability index of 1.98.
Variant LQTLRARLQGLEADCVRGPDGVCL [Q3T] has a protein stability index of 1.2.
In the case of LQMLRARLQGLEADCVRGPDGVCL [Q3M], the protein stability index is reported as 3.04.
LQYLRARLQGLEADCVRGPDGVCL [Q3Y] gave a protein stability index of 1.4.
LQQLEARLQGLEADCVRGPDGVCL [R5E] showed a protein stability index of 3.78.
In the case of LQQLMARLQGLEADCVRGPDGVCL [R5M], the protein stability index is reported as 1.84.
LQQLHARLQGLEADCVRGPDGVCL [R5H] showed a protein stability index of 2.61.
For LQQLNARLQGLEADCVRGPDGVCL [R5N], the protein stability index was 2.87.
Work on LQQLGARLQGLEADCVRGPDGVCL [R5G] yielded a protein stability index of 2.78.
With LQQLYARLQGLEADCVRGPDGVCL [R5Y] the protein stability index was 2.34.
LQQLCARLQGLEADCVRGPDGVCL [R5C] gave a protein stability index of 1.24.
Variant LQQLTARLQGLEADCVRGPDGVCL [R5T] has a protein stability index of 3.04.
Work on LQQLSARLQGLEADCVRGPDGVCL [R5S] yielded a protein stability index of 2.76.
For LQQLIARLQGLEADCVRGPDGVCL [R5I], the protein stability index was 2.42.
Work on LQQLDARLQGLEADCVRGPDGVCL [R5D] yielded a protein stability index of 4.08.
Variant LQQLPARLQGLEADCVRGPDGVCL [R5P] has a protein stability index of 2.98.
LQQLLARLQGLEADCVRGPDGVCL [R5L] showed a protein stability index of 1.17.
Variant LQQLKARLQGLEADCVRGPDGVCL [R5K] has a protein stability index of 2.2.
LQQLFARLQGLEADCVRGPDGVCL [R5F] gave a protein stability index of 2.14.
In the case of LQQQRARLQGLEADCVRGPDGVCL [L4Q], the protein stability index is reported as 3.48.
With LQQFRARLQGLEADCVRGPDGVCL [L4F] the protein stability index was 2.97.
With LQQNRARLQGLEADCVRGPDGVCL [L4N] the protein stability index was 3.83.
Variant LQQERARLQGLEADCVRGPDGVCL [L4E] has a protein stability index of 3.75.
In the case of LQQTRARLQGLEADCVRGPDGVCL [L4T], the protein stability index is reported as 3.18.
Variant LQQRRARLQGLEADCVRGPDGVCL [L4R] has a protein stability index of 3.19.
With LQQCRARLQGLEADCVRGPDGVCL [L4C] the protein stability index was 1.96.
LQQVRARLQGLEADCVRGPDGVCL [L4V] showed a protein stability index of 1.81.
Variant LQQMRARLQGLEADCVRGPDGVCL [L4M] has a protein stability index of 2.03.
In the case of LQQDRARLQGLEADCVRGPDGVCL [L4D], the protein stability index is reported as 4.69.
LQQHRARLQGLEADCVRGPDGVCL [L4H] gave a protein stability index of 3.26.
Variant LQQSRARLQGLEADCVRGPDGVCL [L4S] has a protein stability index of 3.01.
In the case of LQQIRARLQGLEADCVRGPDGVCL [L4I], the protein stability index is reported as 1.49.
LQQWRARLQGLEADCVRGPDGVCL [L4W] showed a protein stability index of 2.65.
LQQPRARLQGLEADCVRGPDGVCL [L4P] gave a protein stability index of 2.42.
Variant LQQLRADLQGLEADCVRGPDGVCL [R7D] has a protein stability index of 3.89.
Variant LQQLRASLQGLEADCVRGPDGVCL [R7S] has a protein stability index of 2.72.
LQQLRAALQGLEADCVRGPDGVCL [R7A] gave a protein stability index of 2.12.
Variant LQQLRATLQGLEADCVRGPDGVCL [R7T] has a protein stability index of 2.52.
Work on LQQLRAWLQGLEADCVRGPDGVCL [R7W] yielded a protein stability index of 2.28.
In the case of LQQLRAKLQGLEADCVRGPDGVCL [R7K], the protein stability index is reported as 2.28.
LQQLRAYLQGLEADCVRGPDGVCL [R7Y] showed a protein stability index of 1.73.
In the case of LQQLRANLQGLEADCVRGPDGVCL [R7N], the protein stability index is reported as 2.93.
LQQLRAVLQGLEADCVRGPDGVCL [R7V] gave a protein stability index of 2.03.
For LQQLRAHLQGLEADCVRGPDGVCL [R7H], the protein stability index was 2.91.
LQQLRAGLQGLEADCVRGPDGVCL [R7G] showed a protein stability index of 3.55.
Work on LQQLRAILQGLEADCVRGPDGVCL [R7I] yielded a protein stability index of 2.57.
Work on LQQLRAQLQGLEADCVRGPDGVCL [R7Q] yielded a protein stability index of 3.33.
LQQLRAPLQGLEADCVRGPDGVCL [R7P] gave a protein stability index of 2.59.
Variant LQQLRALLQGLEADCVRGPDGVCL [R7L] has a protein stability index of 3.52.
With LQQLRAFLQGLEADCVRGPDGVCL [R7F] the protein stability index was 2.09.
With LQQLRAELQGLEADCVRGPDGVCL [R7E] the protein stability index was 4.03.
For LQQLRRRLQGLEADCVRGPDGVCL [A6R], the protein stability index was 1.32.
Work on LQQLRFRLQGLEADCVRGPDGVCL [A6F] yielded a protein stability index of 1.95.
For LQQLRGRLQGLEADCVRGPDGVCL [A6G], the protein stability index was 2.84.
For LQQLRIRLQGLEADCVRGPDGVCL [A6I], the protein stability index was 1.43.
For LQQLRVRLQGLEADCVRGPDGVCL [A6V], the protein stability index was 2.4.
With LQQLRHRLQGLEADCVRGPDGVCL [A6H] the protein stability index was 2.47.
For LQQLRMRLQGLEADCVRGPDGVCL [A6M], the protein stability index was 1.36.
With LQQLRPRLQGLEADCVRGPDGVCL [A6P] the protein stability index was 3.61.
LQQLRDRLQGLEADCVRGPDGVCL [A6D] gave a protein stability index of 2.
LQQLRSRLQGLEADCVRGPDGVCL [A6S] showed a protein stability index of 3.27.
LQQLRQRLQGLEADCVRGPDGVCL [A6Q] gave a protein stability index of 1.54.
LQQLRYRLQGLEADCVRGPDGVCL [A6Y] showed a protein stability index of 2.03.
In the case of LQQLRWRLQGLEADCVRGPDGVCL [A6W], the protein stability index is reported as 3.19.
LQQLRTRLQGLEADCVRGPDGVCL [A6T] showed a protein stability index of 3.11.
LQQLRNRLQGLEADCVRGPDGVCL [A6N] showed a protein stability index of 2.19.
IQQLRARLQGLEADCVRGPDGVCL [L1I] gave a protein stability index of 1.72.
CQQLRARLQGLEADCVRGPDGVCL [L1C] gave a protein stability index of 2.92.
Work on TQQLRARLQGLEADCVRGPDGVCL [L1T] yielded a protein stability index of 3.66.
EQQLRARLQGLEADCVRGPDGVCL [L1E] showed a protein stability index of 5.29.
For NQQLRARLQGLEADCVRGPDGVCL [L1N], the protein stability index was 2.96.
For PQQLRARLQGLEADCVRGPDGVCL [L1P], the protein stability index was 4.19.
For VQQLRARLQGLEADCVRGPDGVCL [L1V], the protein stability index was 2.52.
Work on SQQLRARLQGLEADCVRGPDGVCL [L1S] yielded a protein stability index of 4.1.
With HQQLRARLQGLEADCVRGPDGVCL [L1H] the protein stability index was 3.85.
For KQQLRARLQGLEADCVRGPDGVCL [L1K], the protein stability index was 3.5.
With FQQLRARLQGLEADCVRGPDGVCL [L1F] the protein stability index was 1.12.
In the case of AQQLRARLQGLEADCVRGPDGVCL [L1A], the protein stability index is reported as 3.3.
Variant RQQLRARLQGLEADCVRGPDGVCL [L1R] has a protein stability index of 3.76.
With YQQLRARLQGLEADCVRGPDGVCL [L1Y] the protein stability index was 2.22.
Variant QQQLRARLQGLEADCVRGPDGVCL [L1Q] has a protein stability index of 3.83.
With LQQLRARDQGLEADCVRGPDGVCL [L8D] the protein stability index was 3.58.
LQQLRARKQGLEADCVRGPDGVCL [L8K] gave a protein stability index of 3.57.
With LQQLRAREQGLEADCVRGPDGVCL [L8E] the protein stability index was 5.35.
LQQLRARFQGLEADCVRGPDGVCL [L8F] showed a protein stability index of 2.29.
LQQLRARIQGLEADCVRGPDGVCL [L8I] gave a protein stability index of 2.84.
